Here are results for 1 molecule from publication PMC7875320.

In the data set the target is human insulin (Homo sapiens, UniProt P01308;P01308 25-54;90-110). Description: graphene field-effect transistor.
Chain of human insulin (P01308 25-54, chain 1 of 2): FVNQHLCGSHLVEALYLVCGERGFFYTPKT
Chain of human insulin (P01308 90-110, chain 2 of 2): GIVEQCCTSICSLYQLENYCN

What is called Kd is the equilibrium constant for the complex coming apart. Molecule GGTGGTGGGGGGGGTTGGTAGGGTGTCTTC (structured_DNA, 5'-NH2 (amine)) [IGA3] had an equilibrium dissociation constant (Kd) of 35 nM.
